Our source for the self-cleavage values is the RNAGym collection of RNA variant scans (doi:10.7554/elife.80360).

B1: Twister Ribozyme (parent)
chain: AACACUGCCAAUGCCGGUCCCAAGCCCGGAUAAAAGUGGAGGGGGCGG

This data set covers variants of B1. Nature of the data set: self-cleavage, relative activity (ratio to wild type); higher = more cleavage; co-transcriptional.
For U31A U37A, the self-cleavage was found to be 0.721.
In the case of C9A G42U, the self-cleavage worked out at 0.149.
On to G7C U12G, for which the self-cleavage is 0.0541.
The value for G17C C25G was 0.0833.
The value for C8G A10G was 0.592.
Take C15G: the self-cleavage was 0.101.
With C15A A33C, the self-cleavage came out at 0.538.
On to G44A C46U, for which the self-cleavage stood at 0.988.
Regarding G29C A30C, the self-cleavage was 0.971.
Consider A4U G7U, for which the self-cleavage was found to be 0.0685.
On to G29A A32U, for which the self-cleavage stood at 0.949.
Consider U31C G45A, for which the self-cleavage came to 0.965.
For A23G A35C, the self-cleavage is 0.499.
Take A2G A34C: the self-cleavage was 0.151.
As for G38C G43U, the self-cleavage stood at 0.242.
The value for C25G U31C was 0.404; that for G24U A35G was 0.0925.
On to G7C C46G, for which the self-cleavage came to 0.0721.
As to C21U G43C, the self-cleavage turned out to be 0.0867.
The value for A11G C14A was 0.941; that for C9G G41A was 0.168; that for A23G A34C was 0.0596.
Regarding U18A G29U, the self-cleavage was 0.389.
As to C3U G38C, the self-cleavage was found to be 0.288.
A11U G36C: the self-cleavage worked out at 0.573.
Under U18C G42C stands 0.114.
Take C8A G43C: the self-cleavage was 0.153.
As to C15G G45U, the self-cleavage turned out to be 0.133.
Under A35G G45A stands 0.889; under C20U A33G, 0.988; under C27A, 0.672.
In the case of C27U, the self-cleavage is 0.876.
C3U C27U: the self-cleavage is 0.231.
Consider A22U A23U, for which the self-cleavage amounted to 0.102.
The value for A11U U37G was 0.953.
Regarding A35U, the self-cleavage came to 0.969.
For G24C G38C, the self-cleavage stood at 0.144.
In the case of U6G U37C, the self-cleavage stood at 0.159.
For the variant U18C G24U, the self-cleavage came out at 0.079.
With A10C G24A, the self-cleavage turned out to be 0.0991.
For C5G G42C, the self-cleavage was found to be 0.226.
Regarding G29A G36A, the self-cleavage worked out at 0.458.
For the variant U12G G38A, the self-cleavage came to 0.771.
For U31G G44A, the self-cleavage came to 0.825.
The value for U18A C26G was 0.124; that for C27U G41U was 0.345; that for C26U C27U was 0.115.
Under C26U C27G stands 0.0958; under C25A G38U, 0.0853; under A1C C19U, 0.205.
Regarding A4U A22G, the self-cleavage was found to be 0.0233.
On to C3U G43A, for which the self-cleavage worked out at 0.0963.
On to C15U A34G, for which the self-cleavage was 0.806.
For the variant G28C A32U, the self-cleavage turned out to be 0.813.
For the variant G38U G42U, the self-cleavage is 0.12.
In the case of C14A C26A, the self-cleavage is 0.38.
Turning to C19G A30C, the self-cleavage came to 0.0929.
Under U6A U31G stands 1.01; under U31G G38C, 0.894; under G36A G38A, 0.359.
In the case of A4C C19G, the self-cleavage amounted to 0.0582.
For U31A G45U, the self-cleavage is 0.619.
As for A11G U31G, the self-cleavage worked out at 1.1.
Under C5A A34C stands 0.119; under G24U U37A, 0.0892; under C8G C46G, 0.344.
For C9A A11U, the self-cleavage turned out to be 0.767.
Consider U12A C25G, for which the self-cleavage was determined as 0.423.
Under C20U A30U stands 1.05; under U6C U31A, 0.581.
For G28U G42A, the self-cleavage came out at 0.26.
Under C27G G47C stands 0.0485; under A22U C46A, 0.764; under G13A A23C, 0.093.
Under A35U G41C stands 0.206; under C27U U37A, 0.444.
The value for C27A A35G was 0.0986; that for G7A G41C was 0.143; that for G7U A33C was 0.0647.
Turning to A22C A30G, the self-cleavage came out at 1.16.
Turning to C20G G45C, the self-cleavage is 0.136.
Regarding G43C G47A, the self-cleavage was 0.138.
Regarding C21A G41A, the self-cleavage is 0.27.
On to A23G C25U, for which the self-cleavage worked out at 0.132.
With C14A A40C, the self-cleavage turned out to be 0.189.
The value for U12G C19U was 0.998; that for A34G G47U was 0.553; that for A11C C26A was 0.183.
Under G17A C46A stands 0.322; under G28C U37C, 0.267; under A33C G43A, 0.17.
For C15G A22U, the self-cleavage was 0.0572.
Under A30U G45A stands 0.817; under U31G A33C, 1.03; under A30G A33C, 1.06.
Under G24C A40C stands 0.141; under G47C G48U, 0.4.
Under G47C G48C stands 0.799; under A1U A35G, 0.025; under G16A A23U, 0.228.
Turning to U6G G28A, the self-cleavage worked out at 0.138.
On to G16A C19A, for which the self-cleavage stood at 0.241.
The value for A1G C3A was 0.349; that for A11U G45A was 1.13; that for G16C C21A was 0.0849.
As to A1G U12G, the self-cleavage is 0.527.
On to G7U A23C, for which the self-cleavage came to 0.0594.
For the variant C26U A32U, the self-cleavage amounted to 0.34.
For C15U G43A, the self-cleavage was 0.225.
With C21U G36C, the self-cleavage amounted to 0.0754.
A40G C46U: the self-cleavage was found to be 0.155.
G28U G43A: the self-cleavage came out at 0.221.
The value for U12A A30G was 1.01.
Consider A10U A34G, for which the self-cleavage was determined as 0.703.
Turning to A4C G41C, the self-cleavage was determined as 0.0877.
In the case of A30C A35U, the self-cleavage was found to be 0.912.
A1G G29C: the self-cleavage stood at 0.29.
Under C15A A34U stands 0.273; under A34G G39A, 0.133.
For the variant G13U A23C, the self-cleavage was 0.0557.
As to G17A G29A, the self-cleavage worked out at 0.308.
Turning to C20U A34C, the self-cleavage stood at 0.0697.
Regarding C25U C46A, the self-cleavage was 0.686.
Turning to U18A C27A, the self-cleavage was 0.114.
Consider A22G U31G, for which the self-cleavage came out at 0.263.
On to C15G G38U, for which the self-cleavage was found to be 0.0777.
For A33C G41C, the self-cleavage is 0.151.
On to U37C G44C, for which the self-cleavage came out at 0.738.
In the case of G7C G17C, the self-cleavage is 0.0528.
The value for C8A A40C was 0.113; that for A1C A11U was 0.176; that for C9G A32G was 0.731.
In the case of C14G G16C, the self-cleavage is 0.143.
For the variant G24U G29U, the self-cleavage worked out at 0.103.
In the case of C25A A32C, the self-cleavage is 0.0985.
On to C14G C25G, for which the self-cleavage came to 0.0771.
Under A10G G36A stands 0.786; under C3G C26G, 0.0704.
C20U C25G: the self-cleavage is 0.088.
Turning to C19U U31G, the self-cleavage amounted to 0.956.
With A11C C27U, the self-cleavage was determined as 0.352.
For the variant A2U C27U, the self-cleavage was 0.357.
As for C9G C20A, the self-cleavage turned out to be 0.0864.
Turning to C9G C20G, the self-cleavage was found to be 0.0438.
Under C9A G39C stands 0.119.
Consider A23G G41A, for which the self-cleavage was determined as 0.15.
Under A2G C19G stands 0.121; under A11G C20G, 0.197; under G28A A35U, 0.847.
Regarding A2G G47U, the self-cleavage turned out to be 0.117.
Consider C25U G29A, for which the self-cleavage was 0.734.
For C25A G42U, the self-cleavage stood at 0.0765.
G13U G29U: the self-cleavage amounted to 0.588.
As for G13U A40G, the self-cleavage came to 0.152.
Consider G17C A22C, for which the self-cleavage worked out at 0.123.
Take G38A A40U: the self-cleavage came to 0.118.
Consider C8A A22C, for which the self-cleavage was 0.45.
The value for U6C C46U was 0.625; that for G17U C27A was 0.148; that for C20U G28A was 0.809.
In the case of A1U A40U, the self-cleavage was 0.0682.
Turning to C15G G17A, the self-cleavage stood at 0.326.
Regarding G38C G39A, the self-cleavage turned out to be 0.243.
G38U G47A: the self-cleavage stood at 0.564.
Under A4U C46U stands 0.125; under C3G A22G, 0.124; under A23C C46G, 0.155.
